Data published in PMC4242836 (The Journal of Cell Biology, 2014).

Molecular target: T1, Snu13p (S. cerevisiae, UniProt P39990 1-126)
T1 sequence: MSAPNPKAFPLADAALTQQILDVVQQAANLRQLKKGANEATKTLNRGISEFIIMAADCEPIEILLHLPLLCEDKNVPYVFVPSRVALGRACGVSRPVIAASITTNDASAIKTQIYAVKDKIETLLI
Test: crystal structure

binding result: binds
B1: Rsa1_(238–290) (domain or fragment)
chain: TDEDVKKWREERKKMWLLKISNNKQKHMQEMGIKEDELKSQPSIFKESRKEKQ
